B1: TPR t1 (parent)
chain: GACCAAUCUGCCCUCAGAGCUCGAGAACAUCUUCGGAUGCAGAGGAGGCAGGCUUCGGUGGCGCGAUAGCGCCAACGUCCUCAACCUCCAAUGCAUCCCACCACAUGAUGAUGCCUGAAGAGCCUUGGUUUUUUG

Variants of: B1
Assay: polymerase ribozyme fitness, log enrichment relative to wild type (log ratio); higher = more active; in vitro selection for triplet polymerase activity
How it was run: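 Each subunit of a heterodimeric triplet polymerase ribozyme was mutagenized into a library by PCR, transcribed, and subjected to one round of in vitro selection, run in triplicate. Libraries were annealed with a biotinylated primer, the partner subunit and triplets, incubated frozen at −7 °C, and extended constructs were gel-excised, captured on streptavidin beads and recovered by RT-PCR. Input and output libraries were sequenced on Illumina, keeping genotypes with ≥10 input reads and ≥1 read per output. Fitness is log base 2 of genotype enrichment divided by wild-type enrichment, from inverse-variance-weighted replicate averages.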

Going from C11G C72G C82G G117C to C11G U59G U92A C114U A121C G128U, the “polymerase ribozyme fitness (log ratio)” value rises from -3.64 to -3.21.

Compared with C11U C34G C89U A105C U106A, C12A G44A A46G G48U is higher in “polymerase ribozyme fitness (log ratio)” value: -4.08 for the first, -3.1 for the second.

Compared with C11U A37G U96G, C11G G36U A43U G61A G63A C115U U125A U132A is lower in “polymerase ribozyme fitness (log ratio)” value: -2.69 for the first, -6.45 for the second.

First: C12A C22A C40U G58C C86A U112G
Second: C11U A50C G60U G77A G122A
The “polymerase ribozyme fitness (log ratio)” value of the first is lower: -5.73 for the first, 0.303 for the second.

Going from C11U C20G C72U to C11G C13G A18U C49G, the “polymerase ribozyme fitness (log ratio)” value falls from -3 to -3.53.

Compared with C11G C70U C79A, C11G C13A C88G is lower in “polymerase ribozyme fitness (log ratio)” value: -1.87 for the first, -2.71 for the second.

Going from C11G G42C G69U A111C to C12A A16U C56A, the “polymerase ribozyme fitness (log ratio)” value falls from -0.0543 to -3.74.

Going from C12A G17U U96A G120U to C11U G23A G110C U130G, the “polymerase ribozyme fitness (log ratio)” value falls from -1.6 to -6.32.

First: C12A A46U G47C C124G
Second: C11U C82A
The “polymerase ribozyme fitness (log ratio)” value of the first is higher: -0.295 for the first, -1.02 for the second.

Going from C11G C80A G117C C123U to C11U C94U, the “polymerase ribozyme fitness (log ratio)” value rises from -7.43 to -1.24.

Compared with C11U C94G, C11G C62U C101G U131G is lower in “polymerase ribozyme fitness (log ratio)” value: -1.27 for the first, -3.31 for the second.

Going from C11G U54C G60U C86U to C11G C15G G47C U116C, the “polymerase ribozyme fitness (log ratio)” value falls from -0.56 to -2.52.

C11G U126C and C11G U126A are within 0.2 log units of each other in “polymerase ribozyme fitness (log ratio)” value: -0.774 for the first, -0.924 for the second.

Compared with C12A C89U C101A A111U, C12A C62A is higher in “polymerase ribozyme fitness (log ratio)” value: -5.17 for the first, -1.05 for the second.

First: C11G G42U A84U
Second: C11G G44A A121U
The “polymerase ribozyme fitness (log ratio)” value of the first is lower: -1.53 for the first, 1.52 for the second.

Going from C11U A41G U78G C97U to C11U C22U U38C, the “polymerase ribozyme fitness (log ratio)” value falls from -1.63 to -4.76.

First: C11U C56G U112G
Second: C11G G44A G60A A121U
The “polymerase ribozyme fitness (log ratio)” value of the first is lower: -0.0117 for the first, 1.14 for the second.

Compared with C11G C124A, C11G C15G G63C A68U C80U C115G G127C G135C is lower in “polymerase ribozyme fitness (log ratio)” value: 2.13 for the first, -5.08 for the second.

First: C11G C49A A74G A75U G77U
Second: C12A C79A A111G
The “polymerase ribozyme fitness (log ratio)” value of the first is higher: -0.693 for the first, -2.24 for the second.

Going from C12A C73A to C11U G45A G48A, the “polymerase ribozyme fitness (log ratio)” value falls from 1.15 to -2.77.

Going from C11U G52A A118G to C11U A26U A46C C49G C72U C86G, the “polymerase ribozyme fitness (log ratio)” value falls from -0.222 to -6.59.

First: C11G G61A C124A
Second: C11G C22U
The “polymerase ribozyme fitness (log ratio)” value of the first is higher: 2.07 for the first, -2.75 for the second.

Going from C11U C72G to C11G C49A G61A G120U, the “polymerase ribozyme fitness (log ratio)” value rises from -0.586 to 2.28.

Going from C12A A26G A121C to C11G U96G, the “polymerase ribozyme fitness (log ratio)” value rises from -1.17 to -0.325.

C12A C62G U133G and C11U A66C C94U are within 0.2 log units of each other in “polymerase ribozyme fitness (log ratio)” value: -1.75 for the first, -1.69 for the second.

Going from C12A C70G C89A G110A U129A to C11G U125A, the “polymerase ribozyme fitness (log ratio)” value rises from -6.66 to -0.25.

Going from C12A C22G A27U to C11U U78A C97A, the “polymerase ribozyme fitness (log ratio)” value falls from -4.16 to -5.69.

C12A C64U A90C and C11U A46U C86U are within 0.2 log units of each other in “polymerase ribozyme fitness (log ratio)” value: -2.08 for the first, -2.1 for the second.

First: C12A C40U U87G
Second: C11U U78C U106G
The “polymerase ribozyme fitness (log ratio)” value of the first is higher: -1.56 for the first, -2.03 for the second.

Compared with C11G G35C G71U G110U, C11G C62A is higher in “polymerase ribozyme fitness (log ratio)” value: -7.04 for the first, -0.516 for the second.

Compared with C12A C40G C104U G128U, C11U A26G G45A G58A is lower in “polymerase ribozyme fitness (log ratio)” value: -3.15 for the first, -5.7 for the second.

Going from C12A C72A to C11G G42C C53A, the “polymerase ribozyme fitness (log ratio)” value falls from 0.329 to -1.03.

Going from C12A C15A C70A C72A G110U to C11U C56A C123U, the “polymerase ribozyme fitness (log ratio)” value rises from -6.17 to 1.37.

Going from C12A A26U G61A U131G to C11G G19U C82U, the “polymerase ribozyme fitness (log ratio)” value falls from -4.35 to -5.29.

First: C12A G58A G61C C79U C82A A83C C114U
Second: C12A G19U G57U
The “polymerase ribozyme fitness (log ratio)” value of the first is lower: -5.31 for the first, -3.2 for the second.

Compared with C12A G19C C85U A91U G122U, C11U G44A C79U A119U is higher in “polymerase ribozyme fitness (log ratio)” value: -3.66 for the first, -1.69 for the second.

First: C12A C72A C99A G120U G128U
Second: C12A C15A A43G A50U G61U
The “polymerase ribozyme fitness (log ratio)” value of the first is lower: -7.62 for the first, -6.06 for the second.

Going from C12A G17C G48C to C11G C76U G120A, the “polymerase ribozyme fitness (log ratio)” value rises from -6.47 to 2.23.

Going from C11U C56A U116C to C11U U33A, the “polymerase ribozyme fitness (log ratio)” value falls from -2.85 to -4.31.

Compared with C11U A118G U133A, C11U C22G A26C is lower in “polymerase ribozyme fitness (log ratio)” value: -0.694 for the first, -3.57 for the second.

Going from C11U G36U to C11G G19A C53U C89A, the “polymerase ribozyme fitness (log ratio)” value falls from -1.77 to -2.96.

With C12A C99U the “polymerase ribozyme fitness (log ratio)” value was -3.06.

Reference: the RNAGym collection of RNA variant scans (doi:10.1073/pnas.2313332121)
